The numbers were not newly measured in PMC3601010, “The complete N-terminal extension of heparin cofactor II is required for maximal effectiveness as a thrombin exosite 1 ligand” (BMC Biochemistry, 2013), which cites them from elsewhere.

The target of this series is T1, thrombin (Homo sapiens, UniProt P00734).
T1 construct: purchased Enzyme Research, South Bend, IN; host or cells: HCII 1-75 probe made in house in E. coli TOP10
The note with it: heparin, heparan sulfate, or dermatan sulfate; ref [7]-[11]. An excerpt:
Heparin cofactor II (HCII) is a 66 kDa plasma protein and member of the serpin superfamily of protease inhibitors (reviewed in [3]). It regulates the key coagulation protease thrombin by trapping it in a covalently-linked denaturation-resistant complex. Thrombin-complexed HCII is cleaved at its reactive center peptide bond, while thrombin in the inhibitory complex, by analogy to enzymes in other serpin-enzyme complexes, is conformationally inactivated by active site distortions that render it incapable of completing the catalytic cycle of a proteolytic enzyme. The r ...

B1: HCII: 66 kDa plasma protein and member of the serpin superfamily of protease inhibitors (protein, UniProt P05546 20-499, looked up)
Heparin cofactor 2: GSKGPLDQLEKGGETAQSADPQWEQLNNKNLSMPLLPADFHKENTVTNDWIPEGEEDDDYLDLEKIFSEDDDYIDIVDSLSVSPTDSDVSAGNILQLFHGKSRIQRLNILNAKFAFNLYRVLKDQVNTFDNIFIAPVGISTAMGMISLGLKGETHEQVHSILHFKDFVNASSKYEITTIHNLFRKLTHRLFRRNFGYTLRSVNDLYIQKQFPILLDFKTKVREYYFAEAQIADFSDPAFISKTNNHIMKLTKGLIKDALENIDPATQMMILNCIYFKGSWVNKFPVEMTHNHNFRLNEREVVKVSMMQTKGNFLAANDQELDCDILQLEYVGGISMLIVVPHKMSGMKTLEAQLTPRVVERWQKSMTNRTREVLLPKFKLEKNYNLVESLKLMGIRMLFDKNGNMAGISDQRIAIDLFKHQGTITVNEEGTQATTVTTVGFMPLSTQVRFTVDRPFLFLIYEHRTSCLLFMGRVANPSRS
modifications: plasma-derived
On to B1, for which the “increase of thrombin inhibition rate by GAGs” value was “three to four orders of magnitude”.
